Experimental data as given in patent publication WO2006132352A1.

B1: humanized anti-human Mpl antibody hVB22B u2-wz4 sc(Fv)2 (bulk, before separation of the structural isomers) (scFv, from another filing)
chain: QVQLVQSGPEVKKPGASVKVSCKASGYTFTNSWMNWVRQRPGKGLEWIGRIYPGDGETIYNGKFRVRVTITADESTSTAYMQLSSLRSEDTAVYYCARGYDDYSFAYWGQGTTVTVSSGGGGSGGGGSGGGGSDIVMTQSPLSLPVTPGEPASISCRSSKSLLHSNGNTYLYWFLQKPGQSPQLLIYRMSNLASGVPDRFSGSGSGTDFTLKISRVEAEDVGVYYCMQHIEYPFTFGQGTKLEIKGGGGSGGGGSGGGGSQVQLVQSGPEVKKPGASVKVSCKASGYTFTNSWMNWVRQRPGKGLEWIGRIYPGDGETIYNGKFRVRVTITADESTSTAYMQLSSLRSEDTAVYYCARGYDDYSFAYWGQGTTVTVSSGGGGSGGGGSGGGGSDIVMTQSPLSLPVTPGEPASISCRSSKSLLHSNGNTYLYWFLQKPGQSPQLLIYRMSNLASGVPDRFSGSGSGTDFTLKISRVEAEDVGVYYCMQHIEYPFTFGQGTKLEIK
B2: hVB22B u2-wz4 sc(Fv)2 peak1 (bivalent scFv type structural isomer) (scFv, from another filing)
chain: B1 chain
B3: hVB22B u2-wz4 sc(Fv)2 peak2 (single chain diabody type structural isomer) (scFv, from another filing)
chain: B1 chain

molecular target: MG10 (Gln213 to Ala231 of the human Mpl amino acid sequence) and GST fusion protein (human) (UniProt P40238); assay: SPR, Biacore 3000, MG10-GST amine-coupled on CM5, sc(Fv)2 at about 5-150 nM as analyte, bivalent analyte model

B1 and B2 are within 1.5-fold of each other in Kd: 10.2 nM for the first, 12.4 nM for the second.

B3 was tested, and the Kd was 9.92 nM.
